Earlier results, collected in patent US11419917B2, “Treatment for SARS-CoV-2 and other coronaviruses” (priority 2020, dated 2022).
Entries after “also recorded” stand apart in the source; their conditions may differ. Where two headings read alike, the source gives them in different places.

Assays:
[1] = in vivo
[2] = patients treated for 3 days compared to placebo

Molecule | half-life [1] | half-life ([1]; listed as B-type NP) [min] | decrease in infarct size [2] [%]
BNP: B-type natriuretic peptide, a 32-amino acid peptide; generic name Nesiritide | 22 min | 20 | –
ANP: A-type natriuretic peptide, a 28-amino acid peptide degraded from pro ANP | approximately 10 minutes; also recorded: several | – | –
CC[C@H](C)[C@@H]1NC(=O)[C@H](CCCNC(=N)N)NC(=O)[C@H](CC(=O)O)NC(=O)[C@H](CCSC)NC(=O)[C@H](CCCNC(=N)N)NC(=O)CNC(=O)CNC(=O)[C@H](Cc2ccccc2)NC(=O)[C@@H](NC(=O)[C@H](CO)NC(=O)[C@H](CO)NC(=O)[C@H](CCCNC(=N)N)NC(=O)[C@H](CCCNC(=N)N)NC(=O)[C@H](CC(C)C)NC(=O)[C@@H](N)CO)CSSC[C@@H](C(=O)N[C@@H](CC(N)=O)C(=O)N[C@@H](CO)C(=O)N[C@@H](Cc2ccccc2)C(=O)N[C@@H](CCCNC(=N)N)C(=O)N[C@@H](Cc2ccc(O)cc2)C(=O)O)NC(=O)CNC(=O)[C@H](CC(C)C)NC(=O)CNC(=O)[C@H](CO)NC(=O)[C@H](CCC(N)=O)NC(=O)[C@H](C)NC(=O)CNC1=O [Carperitide] | – | – | ~15
